According to patent US20240272170A1 (QUANTUM SI, published 2024):

Tests used:
[1] = molecular target: T1, QP1165 after cleavage to N-terminal arginine (RVWK); experiment: on-chip dynamic sequencing of QP1165, PS2132 run, trace Aperture=1826247
T1 peptide: RVWK

[2] = molecular target: T1, QP1165 after cleavage to N-terminal …; experiment: on-chip dynamic sequencing of QP1165, PS2121 run, trace Aperture=1683362
[3] = molecular target: T1, QP1165 after cleavage to N-terminal …; experiment: on-chip dynamic sequencing of QP1165, PS2123 run, trace Aperture=1168773
[4] = molecular target: T1, QP1165 after cleavage to N-terminal …; experiment: on-chip dynamic sequencing of QP1165, 500 nM PS1875 plus five recognizers, 3369 alignments
[5] = molecular target: T1, QP1165 after cleavage to N-terminal …; experiment: on-chip dynamic sequencing of QP1165, PS1875 run, trace Aperture=1377116
Description: (§1) The semiconductor chip was placed in the sequencing device and a chip check was performed to test electronic circuit function and to optimize laser coupling alignment. The chip was then removed from the device socket and the chip was washed twice with 50 μL of 70% isopropanol, followed by four washes with 30 μL of wash buffer (50 mM MOPS pH 8.0, 60 mM potassium acetate, 50 mM glucose, 20 mM magnesium acetate, and surfactant mix) through a flow cell attached to the chip. A second chip check was then performed. The laser was then blocked via an integrated software-controlled shutter, peptide complex was added to a final concentration of 1-10 nM and mixed thoroughly, and the chip was incubated for 15 min. The chip was then washed six times with wash buffer, followed by addition of an imaging solution (wash buffer with 5 mM Trolox and an oxygen scavenging system). The laser was unblocked and the occupancy percentage (target 10-30%, Poisson distributed) was recorded by acquiring a photobleaching signal from a fluorophore attached to the peptide complex during 5 min of laser illumination. […] Data was recorded for 15 min. The laser was then blocked briefly and aminopeptidases were added to the sequencing reaction via the flow cell and mixed thoroughly (final concentration 2-8 μM PhTET2 and/or 20-80 μM PhTET3, as indicated according to the experiment). The laser was then unblocked, and data was recorded for 10 hours. For all runs, 30 μL of mineral oil was added to fluid reservoirs at each port of the flow cell to prevent evaporation during the run.

[6] = molecular target: T1, QP1165 after cleavage to N-terminal …; experiment: on-chip dynamic sequencing of QP1165, PS2132 run, trace Aperture=376215
[7] = molecular target: T1, QP1165 after cleavage to N-terminal …; experiment: on-chip dynamic sequencing of QP1165, PS2121 run, trace Aperture=740473
[8] = molecular target: T1, QP1165 after cleavage to N-terminal …; experiment: on-chip dynamic sequencing of QP1165, PS1875 run, trace Aperture=430641
[9] = molecular target: T1, QP1165 after cleavage to N-terminal …; experiment: on-chip dynamic sequencing of QP1165, 500 nM PS2123 plus five recognizers, 62511 alignments
[10] = molecular target: T1, QP1165 after cleavage to N-terminal …; experiment: on-chip dynamic sequencing of QP1165, PS1875 run, trace Aperture=1353995
[11] = molecular target: T1, QP1165 after cleavage to N-terminal …; experiment: on-chip dynamic sequencing of QP1165, PS1875 run, trace Aperture=340501
[12] = molecular target: T1, QP1165 after cleavage to N-terminal …; experiment: on-chip dynamic sequencing of QP1165, 500 nM PS2132 plus five recognizers, 36192 alignments
[13] = molecular target: T1, QP1165 after cleavage to N-terminal …; experiment: on-chip dynamic sequencing of QP1165, PS1875 run, trace Aperture=295010
[14] = molecular target: T1, QP1165 after cleavage to N-terminal …; experiment: on-chip dynamic sequencing of QP1165, 500 nM PS2121 plus five recognizers, 15527 alignments
[15] = molecular target: T1, QP1165 after cleavage to N-terminal …; experiment: on-chip dynamic sequencing of QP1165, 500 nM PS1875 plus five recognizers, 7305 alignments
[16] = molecular target: T1, QP1165 after cleavage to N-terminal …; experiment: on-chip dynamic sequencing of QP1165, 500 nM PS1875 plus five recognizers, 11565 alignments
Description: as §1

[17] = molecular target: T2, QP1165 after cleavage to N-terminal alanine (AFLKQRVWK); experiment: on-chip dynamic sequencing of QP1165, PS2132 run, trace Aperture=1826247
T2 peptide: AFLKQRVWK

[18] = molecular target: T2, QP1165 after cleavage to N-terminal …; experiment: on-chip dynamic sequencing of QP1165, PS2121 run, trace Aperture=1683362
[19] = molecular target: T2, QP1165 after cleavage to N-terminal …; experiment: on-chip dynamic sequencing of QP1165, PS2123 run, trace Aperture=1168773
[20] = molecular target: T2, QP1165 after cleavage to N-terminal …; experiment: on-chip dynamic sequencing of QP1165, 500 nM PS1875 plus five recognizers, 3369 alignments
[21] = molecular target: T2, QP1165 after cleavage to N-terminal …; experiment: on-chip dynamic sequencing of QP1165, PS1875 run, trace Aperture=1377116
Description: as §1

[22] = molecular target: T2, QP1165 after cleavage to N-terminal …; experiment: on-chip dynamic sequencing of QP1165, PS2132 run, trace Aperture=376215
[23] = molecular target: T2, QP1165 after cleavage to N-terminal …; experiment: on-chip dynamic sequencing of QP1165, PS2121 run, trace Aperture=740473
[24] = molecular target: T2, QP1165 after cleavage to N-terminal …; experiment: on-chip dynamic sequencing of QP1165, PS1875 run, trace Aperture=430641
[25] = molecular target: T2, QP1165 after cleavage to N-terminal …; experiment: on-chip dynamic sequencing of QP1165, 500 nM PS2123 plus five recognizers, 62511 alignments
[26] = molecular target: T2, QP1165 after cleavage to N-terminal …; experiment: on-chip dynamic sequencing of QP1165, PS1875 run, trace Aperture=1353995
[27] = molecular target: T2, QP1165 after cleavage to N-terminal …; experiment: on-chip dynamic sequencing of QP1165, 500 nM PS2132 plus five recognizers, 36192 alignments
[28] = molecular target: T2, QP1165 after cleavage to N-terminal …; experiment: on-chip dynamic sequencing of QP1165, PS2123 run, trace Aperture=501326
[29] = molecular target: T2, QP1165 after cleavage to N-terminal …; experiment: on-chip dynamic sequencing of QP1165, 500 nM PS2121 plus five recognizers, 15527 alignments
[30] = molecular target: T2, QP1165 after cleavage to N-terminal …; experiment: on-chip dynamic sequencing of QP1165, PS1875 run, trace Aperture=1311609
[31] = molecular target: T2, QP1165 after cleavage to N-terminal …; experiment: on-chip dynamic sequencing of QP1165, 500 nM PS1875 plus five recognizers, 7305 alignments
[32] = molecular target: T2, QP1165 after cleavage to N-terminal …; experiment: on-chip dynamic sequencing of QP1165, 500 nM PS1875 plus five recognizers, 11565 alignments
Description: as §1

AA peptide [33] = molecular target: T3, AA peptide; experiment: BLI (Octet), peptide on sensor, purified protein in solution
T3 construct: The peptide was coated on the Octet sensor; also called peptide with N-terminal alanine and penultimate alanine
Description: (§2) In the high-throughput assay, Octet sensors are coated with the peptide of interest and dipped in buffer containing the purified protein. An approximation of relative binding can be obtained by comparing the response after 200 seconds for each protein. Each protein has approximately the same molecular mass and is used at the same concentration, so ranking the proteins by response level in this assay gives an approximation of which proteins have improved binding. Studying the on and off-rate can also give insight into the mechanism of binding.

VA peptide [34] = molecular target: T4, VA peptide; experiment: as above
T4 construct: The peptide was coated on the Octet sensor; also called peptide with N-terminal valine and penultimate alanine
Description: as §2

LA peptide [35] = molecular target: T5, LA peptide; experiment: as above
T5 construct: The peptide was coated on the Octet sensor; also called peptide with N-terminal leucine and penultimate alanine
Description: as §2

AA peptide [36] = molecular target: T3, AA peptide; experiment: BLI (Octet), peptide on sensor, purified protein in solution; second row for PS829
Description: as §2

VA peptide [37] = molecular target: T4, VA peptide; experiment: as above
Description: as §2

LA peptide [38] = molecular target: T5, LA peptide; experiment: as above
Description: as §2

B1: PS1220 (designed binder)
single polypeptide, two PS1122 units in tandem: MHSKFSHAGRICGAKFKVGEPIYRCKECSFDDTCVLCVNCFNPKDHLGHHVYTTICTEFNNGECDCGDKTAWNHTLFCKAEEGSAGSAAGSGEFMHSKFSHAGRICGAKFKVGEPIYRCKECSFDDTCVLCVNCFNPKDHLGHHVYTTICTEFNNGECDCGDKTAWNHTLFCKAEEG
notes: also called PS1220 (R); PS1220 (4-CY3B)
[1]
  PD of a recognition segment in an example trace: 0.27 s
[2]
  PD of a recognition segment in an example trace: 0.45 s
[3]
  PD of a recognition segment in an example trace: 0.3 s
[4]
  IPD (interpulse duration): 9.99 s
  PD (pulse duration): 0.42 s
[5]
  PD of a recognition segment in an example trace: 0.4 s
[6]
  PD of a recognition segment in an example trace: 0.94 s
[7]
  PD of a recognition segment in an example trace: 0.71 s
[8]
  PD of a recognition segment in an example trace: 0.31 s
[9]
  IPD (interpulse duration): 9.74 s
  PD (pulse duration): 0.4 s
[10]
  PD of a recognition segment in an example trace: 0.34 s
[11]
  PD of a recognition segment in an example trace: 0.31 s
[12]
  IPD (interpulse duration): 11.1 s
  PD (pulse duration): 0.44 s
[13]
  PD of a recognition segment in an example trace: 0.3 s
[14]
  IPD (interpulse duration): 11.9 s
  PD (pulse duration): 0.46 s
[15]
  IPD (interpulse duration): 10.5 s
  PD (pulse duration): 0.43 s
[16]
  IPD (interpulse duration): 10.6 s
  PD (pulse duration): 0.37 s

B2: PS1587 (designed binder)
single polypeptide, two PS1165 units in tandem: MGLENSLETLRFSISNLSMQTHAARMRTFMYWPSSVPVQPEQLASAGFYYVGRNDDVKCFCCDGGLRCWESGDDPWVEHAKWFPRCEFLIRMKGQEFVDEIQGRYPHLLEQLLSEAAAKEAAAKEAAAKMGLENSLETLRFSISNLSMQTHAARMRTFMYWPSSVPVQPEQLASAGFYYVGRNDDVKCFCCDGGLRCWESGDDPWVEHAKWFPRCEFLIRMKGQEFVDEIQGRYPHLLEQLLSG
notes: also called PS1587 (AST)
[17]
  PD of a recognition segment in an example trace: 0.64 s
[18]
  PD of a recognition segment in an example trace: 2.53 s
[19]
  PD of a recognition segment in an example trace: 0.43 s
[20]
  IPD (interpulse duration): 14.7 s
  PD (pulse duration): 0.76 s
[21]
  PD of a recognition segment in an example trace: 0.75 s
[22]
  PD of a recognition segment in an example trace: 0.32 s
[23]
  PD of a recognition segment in an example trace: 0.75 s
[24]
  PD of a recognition segment in an example trace: 0.64 s
[25]
  IPD (interpulse duration): 17.4 s
  PD (pulse duration): 0.7 s
[26]
  PD of a recognition segment in an example trace: 0.87 s
[27]
  IPD (interpulse duration): 16.1 s
  PD (pulse duration): 0.62 s
[28]
  PD of a recognition segment in an example trace: 0.39 s
[29]
  IPD (interpulse duration): 16 s
  PD (pulse duration): 0.72 s
[30]
  PD of a recognition segment in an example trace: 1.26 s
[31]
  IPD (interpulse duration): 15 s
  PD (pulse duration): 0.66 s
[32]
  IPD (interpulse duration): 17.2 s
  PD (pulse duration): 0.72 s

B3: PS829 (designed binder)
chain: MPTAASATESAIEDTPAPARPEVDGRTKPKRQPRYHVVLWDDDDHTYQYVVVMLQSLFGHPRERGYRLAKEMDTLGRVIVLTTTREHAELKRDQIHAFGYDRLLARSKGSMKASIEAEE
notes: Variant of PS557
AA peptide [33]
  Octet response after 200 sec association: 2.5 nm
VA peptide [34]
  Octet response after 200 sec association: 9.5 nm
LA peptide [35]
  Octet response after 200 sec association: 8.5 nm
AA peptide [36]
  Octet response after 200 sec association: 4.5 nm
VA peptide [37]
  Octet response after 200 sec association: 11.3 nm
LA peptide [38]
  Octet response after 200 sec association: 10.9 nm
